Literature values, collected in PMC10967246.
Read-outs that look alike come from different tables or passages of the source.

Tests used:
[1] = molecular target: GluTR (Arabidopsis thaliana) (UniProt P42804)
[2] = molecular target: GluTR (Arabidopsis thaliana) (UniProt P42804); assay: MST

Sequence of GluTR (Arabidopsis thaliana) (P42804 62-543): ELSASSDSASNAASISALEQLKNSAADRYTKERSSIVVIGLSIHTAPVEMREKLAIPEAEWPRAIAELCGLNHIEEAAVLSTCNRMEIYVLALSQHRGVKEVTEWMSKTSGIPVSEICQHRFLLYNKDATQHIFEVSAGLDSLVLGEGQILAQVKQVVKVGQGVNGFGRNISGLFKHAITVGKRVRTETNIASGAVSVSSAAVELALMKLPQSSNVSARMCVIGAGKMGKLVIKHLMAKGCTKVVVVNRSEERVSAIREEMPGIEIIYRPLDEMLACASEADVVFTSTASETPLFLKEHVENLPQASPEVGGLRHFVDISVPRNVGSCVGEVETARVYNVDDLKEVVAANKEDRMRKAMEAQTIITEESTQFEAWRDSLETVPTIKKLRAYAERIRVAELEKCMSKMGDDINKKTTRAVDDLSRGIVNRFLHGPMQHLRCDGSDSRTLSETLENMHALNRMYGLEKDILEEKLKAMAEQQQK
Sequence of GBP (Q9LU39 43-317): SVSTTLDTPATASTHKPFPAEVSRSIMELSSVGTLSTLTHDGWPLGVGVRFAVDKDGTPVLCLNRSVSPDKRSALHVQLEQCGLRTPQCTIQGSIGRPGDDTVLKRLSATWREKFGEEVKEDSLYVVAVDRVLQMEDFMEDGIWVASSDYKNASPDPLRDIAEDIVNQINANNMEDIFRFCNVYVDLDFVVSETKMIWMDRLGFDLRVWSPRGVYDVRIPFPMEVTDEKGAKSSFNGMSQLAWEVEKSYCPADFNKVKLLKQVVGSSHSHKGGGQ
Sequence of FLU TPR domain (Q940U6 203-316): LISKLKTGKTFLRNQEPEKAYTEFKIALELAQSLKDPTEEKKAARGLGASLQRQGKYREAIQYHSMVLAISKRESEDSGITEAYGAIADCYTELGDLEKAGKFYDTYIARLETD

## FLU TPR domain (from UniProt Q940U6)
[1]
  Kd: 475 nM

## GBP (from UniProt Q9LU39)
[2]
  Kd: 42 nM
